From PMC4844702, “Selective inhibition of the kinase DYRK1A by targeting its folding process” (Nature Communications, 2016)

Columns and labels:
Test in all cases: co-IP; CDC37-nanoKAZ interaction assay: cleared lysates (HENG buffer, 50 mM HEPES-KOH pH 7.9, 150 mM NaCl, 20 mM Na2MoO4, 0.5% Triton X-100) of 293T cells added to 96-well plates coated with anti-FLAG M2, 4 °C for 3 h; luminescence of the captured CDC37-nanoKAZ normalized to the amount of captured 3xFLAG-DYRK1A; in some experiments cells were treated with FINDY or RD0392 for 24 h before lysis
Conditions in all cases: partners not purified
[1] = molecular target: T1, 3xFLAG-DYRK1A Y319F/Y321F (human, UniProt Q13627 1-763, Y319F | Y321F)
T1 construct: DYRK1A, the variant in which Ser529 corresponds to Ser520 of the other variant; As m2 with the two substitutions; also called Y319F/Y321F mutant; Y321F/Y319F; source: 293T cells, transiently transfected, in lysate

3xFLAG-DYRK1A S97A = molecular target: T2, 3xFLAG-DYRK1A S97A (human, UniProt Q13627 1-763, S97A)
T2 construct: DYRK1A, the variant in which Ser529 corresponds to Ser520 of the other variant; As m2 with the substitution; also called S97A mutant; source: 293T cells, transiently transfected, in lysate

3xFLAG-DYRK1A K188R = molecular target: T3, 3xFLAG-DYRK1A K188R (human, UniProt Q13627 1-763, K188R)
T3 construct: DYRK1A, the variant in which Ser529 corresponds to Ser520 of the other variant; As m2 with the substitution; also called K188R mutant; kinase-dead mutant; source: 293T cells, transiently transfected, in lysate

3xFLAG-DYRK1A Y321F = molecular target: T4, 3xFLAG-DYRK1A Y321F (human, UniProt Q13627 1-763, Y321F)
T4 construct: DYRK1A, the variant in which Ser529 corresponds to Ser520 of the other variant; As m2 with the substitution; also called Y321F mutant; source: 293T cells, transiently transfected, in lysate

- fold change of luminescence relative to intact DYRK1A [1]: 6.2 fold
- fold change of luminescence relative to intact DYRK1A (3xFLAG-DYRK1A S97A): 2.2 fold
- fold change of luminescence relative to intact DYRK1A (3xFLAG-DYRK1A K188R): 54 fold
- fold change of luminescence relative to intact DYRK1A (3xFLAG-DYRK1A Y321F): 5.2 fold
B1: CDC37 fused with luciferase nanoKAZ (natural protein, UniProt Q16543 1-378, looked up)
chain: MVDYSVWDHIEVSDDEDETHPNIDTASLFRWRHQARVERMEQFQKEKEELDRGCRECKRKVAECQRKLKELEVAEGGKAELERLQAEAQQLRKEERSWEQKLEEMRKKEKSMPWNVDTLSKDGFSKSMVNTKPEKTEEDSEEVREQKHKTFVEKYEKQIKHFGMLRRWDDSQKYLSDNVHLVCEETANYLVIWCIDLEVEEKCALMEQVAHQTIVMQFILELAKSLKVDPRACFRQFFTKIKTADRQYMEGFNDELEAFKERVRGRAKLRIEKAMKEYEEEERKKRLGPGGLDPVEVYESLPEELQKCFDVKDVQMLQDAISKMDPTDAKYHMQRCIDSGLWVPNSKASEAKEGEEAGPGDPLLEAVPKTGDEKDVSV
notes: kinase-specific co-chaperone CDC37; also called CDC37-nanoKAZ; source: 293T cells stably expressing CDC37-nanoKAZ, in lysate
